Broadly, the Km is the concentration of substrate that gives half-maximal velocity. For orientation: kcat means the number of substrate molecules converted per active site and unit of time at saturation.

Substrate in this data set: O=C(Cc1cccs1)N[C@@H]1C(=O)N2C(C(=O)O)=C(/C=C/c3ccc([N+](=O)[O-])cc3[N+](=O)[O-])CS[C@H]12
The data set can be described thus: purified protein. The following applies: nitrocefin 50-200 μM, phosphate buffer pH 7.4.

B1: PBP2a (Staphylococcus aureus) (protein)
chain: YASKDKEINNTIDAIEDKNFKQVYKDSSYISKSDNGEVEMTERPIKIYNSLGVKDINIQDRKIKKVSKNKKRVDAQYKIKTNYGNIDRNVQFNFVKEDGMWKLDWDHSVIIPGMQKDQSIHIENLKSERGKILDRNNVELANTGTAYEIGIVPKNVSKKDYKAIAKELSISEDYIKQQMDQKWVQDDTFVPLKTVKKMDEYLSDFAKKFHLTTNETESRNYPLEKATSHLLGYVGPINSEELKQKEYKGYKDDAVIGKKGLEKLYDKKLQHEDGYRVTIVDDNSNTIAHTLIEKKKKDGKDIQLTIDAKVQKSIYNNMKNDYGSGTAIHPQTGELLALVSTPSYDVYPFMYGMSNEEYNKLTEDKKEPLLNKFQITTSPGSTQKILTAMIGLNNKTLDDKTSYKIDGKGWQKDKSWGGYNVTRYEVVNGNIDLKQAIESSDNIFFARVALELGSKKFEKGMKKLGVGEDIPSDYPFYNAQISNKNLDNEILLADSGYGQGEILINPVQILSIYSALENNGNINAPHLLKDTKNKVWKKNIISKENINLLTDGMQQVVNKTHKEDIYRSYANLIGKSGTAELKMKQGETGRQIGWFISYDKDNPNMMMAINVKDVQDKGMASYNAKISGKVYDELYENGNKKYDIDE
On to B1, for which the Km turned out to be 29.28 µM and the kcat stood at 259.1 s⁻¹.
